Measured values reported in the supplement of paper PMC9170038.

Test system: MS2 coat protein
Assay: apparent KD of MS2 coat protein; designed switch direction (-1 OFF switch, 1 ON switch): 1; higher = weaker reporter binding
Outline: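 Stalled E. coli RNA polymerase transcribed designed RNA switches on Illumina chips, which were then titrated with SNAP-549-labelled MS2 coat protein, doubling from 0.7 or 1.5 nM to 3 µM. Steps lasted from 0.8–1.5 h at the lowest concentration to 10–20 min at the highest. The apparent KD is each design's median over clusters of curve-fitted normalised fluorescence.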

[1] = input ligand: microRNA oligo, concentration not stated
[2] = Eterna round: R95, input ligand: microRNA oligo, concentration not stated

| Sequence | apparent KD of MS2 coat protein (input ligand: FMN 200 uM) | apparent KD of MS2 coat protein [1] | apparent KD of MS2 coat protein (input ligand: none) | apparent KD of MS2 coat protein (Eterna round: R95, input ligand: FMN 200 uM) | apparent KD of MS2 coat protein [2] | apparent KD of MS2 coat protein (Eterna round: R95, input ligand: none) |
| --- | --- | --- | --- | --- | --- | --- |
| AUACAGGAGCCACAUGAGGAUCACCCAUGUGACACGCAAAUGAAGGAUAUCCGACUCCAGACGAGGGAGAAGGUCACGGCGGGC [Eternabot solution 13] (Eterna round: R96, puzzle: Same State NG 3) | 16.6 nM | 11.5 nM | 20.1 nM | – | – | – |
| AUACAUGAGGAUCACCCAUGUAAUUAAUUAACUAGUAAGAUCUAGGAUAUCAGCUCGAUUAGAGCUGAGAAGGAGAUCACAUGU [SSNG3/21-A2] (Eterna round: R96, puzzle: Same State NG 3) | – | 29.3 nM | – | – | – | – |
| AUACAUGAGGAUCACCCAUGUAAUUAAUUAAUUAAUAAGAUCUAGGAUAUCAGCUCGAAUAGAGCUGAGAAGGAGAUCACAUGU [SSNG3/21-B1] (Eterna round: R96, puzzle: Same State NG 3) | – | 19.4 nM | – | – | – | – |
| AUACAUGAGGAUCACCCAUGUAAUUAAUUAAUUAAUAAGAUCUAGGAUAUCAGCUCGAUUAGAGCUGAGAAGGAGAUCACAUGU [SSNG3/21-B2] (Eterna round: R96, puzzle: Same State NG 3) | – | 16.8 nM | – | – | – | – |
| AUACAUGAGGAUCACCCAUGUGAGCAGAGAUAUCUGAUGUACAAGGAUAUCCGAGGGAUCCCGAUGGAGAAGGUGUGCCACCUG [Eternabot solution 22] (Eterna round: R96, puzzle: Same State NG 3) | 57.1 nM | 43 nM | 55.9 nM | – | – | – |
| AUACCAUCGGGAGGAUAUGGCACCUUAUUGGUGCCAGAAGGUCCAACAUGAGGAUCACCCAUGUGGGAGUGGUCUAAUGACCAC [Fiskers NG1ss - 28] (Eterna round: R96, puzzle: Same State NG 1) | 121 nM | 120 nM | 171 nM | – | – | – |
| AUACUCAUGUAAGGAUAUGCAGCCGAAACGGCUGCAGAAGGUACUAUAAUACAUGAGGAUCACCCAUGUCAAAAUAAAAUAGUU [Mat - Same State NG 1 - JL mod - D100] (Eterna round: R96, puzzle: Same State NG 1) | 20.6 nM | 25.4 nM | 25 nM | – | – | – |
| AUAUAACAUGAGGAUCACCCAUGUCAACAAAGUCGAGGAUAUGGGCAAAUAAAAUAAGAACCAGAAGGCGAAUAAU [salish99_ss1_r3_047] (Eterna round: R96, puzzle: Same State 1) | – | 189 nM | – | – | – | – |
| AUAUAACAUGAGGAUCACCCAUGUCAACAAAGUCGAGGAUAUGGGCAAAUAAAAUAAGAACCAGAAGGCGAAUAAU [salish99_ss1_r3_047] (puzzle: Same State 1) | – | – | – | 42.2 nM | 462 nM | 693 nM |
| AUAUAACAUGAGGAUCACCCAUGUCACUAAAGUCGAGGAUAUGGGCAGGUUAUAUCCGAACCAGAAGGCGAAUUAU [SS1 Teenbexe 6] (Eterna round: R96, puzzle: Same State 1) | 41 nM | 221 nM | 208 nM | – | – | – |
| AUAUAACAUGAGGAUCACCCAUGUCACUAAAGUCGAGGAUAUGGGCAGGUUAUAUCCGAACCAGAAGGCGAAUUAU [SS1 Teenbexe 6] (puzzle: Same State 1) | – | – | – | – | 163 nM | – |
| AUAUGAGAAGCAGGAUAUGCGGAGAAGAAAGAAGCAGAAGGGCUUAUGGGACAACAUGAGGAUCACCCAUGUUCUCUGCGAUGA [AK SSNG1-V2-3.1] (Eterna round: R96, puzzle: Same State NG 1) | 60.6 nM | 148 nM | 135 nM | – | – | – |
| AUAUGAGAAGCAGGAUAUGUGAAAAAAAAACAUACAGAAGGGUUUAUGGGACAACAUGAGGAUCACCCAUGUUCUCUGUGAUGA [AK SSNG1-V2-1.1] (Eterna round: R96, puzzle: Same State NG 1) | – | 59.2 nM | – | – | – | – |
| AUAUGAGAAGCAGGAUAUGUGGAGAAGAAACAAACAGAAGGGCUUAUGGGACAACAUGAGGAUCACCCAUGUUCUCUGUGAUGA [ssng1 a] (Eterna round: R96, puzzle: Same State NG 1) | 47.9 nM | 137 nM | 240 nM | – | – | – |
